Sequences and labels used below:
B1: ZNF263 (parent)
chain: QRTHTGEKPYKCPECGEIFAHSSN
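Note: lentivirally expressed fusions sorted by FACS into six bins by GFP to DsRed ratio, PSI derived from sequencing read proportions per bin multiplied by bin number.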

In the series the parent is B1. The series is described as follows: protein stability index of a GFP-peptide fusion (GPS, HEK-293T) (PSI 1-6); higher = more stable. As to conditions: c terminus: a fixed tail appended.
For the variant QRTHTGEWPYKCPECGEIFAHSSN [K8W], the protein stability index turned out to be 3.3.

Turning to QRTHTGEEPYKCPECGEIFAHSSN [K8E], the protein stability index was 3.82.

As to QRTHTGELPYKCPECGEIFAHSSN [K8L], the protein stability index worked out at 3.41.

As for QRTHTGEYPYKCPECGEIFAHSSN [K8Y], the protein stability index stood at 3.34. To QRTHTGECPYKCPECGEIFAHSSN [K8C] belongs 5.15; to QRTHTGYKPYKCPECGEIFAHSSN [E7Y], 2.36; to QRTHTGFKPYKCPECGEIFAHSSN [E7F], 2.71. Take QRTHTGTKPYKCPECGEIFAHSSN [E7T]: the protein stability index is 3.01. For QRTHTGQKPYKCPECGEIFAHSSN [E7Q], the protein stability index came to 3.16. As to QRTHTGDKPYKCPECGEIFAHSSN [E7D], the protein stability index is 3.08. On to QRTHTGNKPYKCPECGEIFAHSSN [E7N], for which the protein stability index worked out at 2.72.

Turning to QRTHTGPKPYKCPECGEIFAHSSN [E7P], the protein stability index came out at 3.42. On to QRTHTGAKPYKCPECGEIFAHSSN [E7A], for which the protein stability index came to 2.65. To QRTHTGIKPYKCPECGEIFAHSSN [E7I] belongs 2.62; to QRTHTGCKPYKCPECGEIFAHSSN [E7C], 3.93; to QRTHTGKKPYKCPECGEIFAHSSN [E7K], 3.29. Consider QRTHTGGKPYKCPECGEIFAHSSN [E7G], for which the protein stability index amounted to 3.

Regarding QRTHTGMKPYKCPECGEIFAHSSN [E7M], the protein stability index was 3.4. Consider QRTHTGHKPYKCPECGEIFAHSSN [E7H], for which the protein stability index stood at 3.44. Consider QRTHTGRKPYKCPECGEIFAHSSN [E7R], for which the protein stability index amounted to 2.33. QRTHTGLKPYKCPECGEIFAHSSN [E7L]: the protein stability index stood at 2.49.

For QRTHTGWKPYKCPECGEIFAHSSN [E7W], the protein stability index worked out at 2.03. Regarding QRTHTGVKPYKCPECGEIFAHSSN [E7V], the protein stability index is 2.35. For the variant QRTHTGSKPYKCPECGEIFAHSSN [E7S], the protein stability index is 3.05. For QRTHTGEKPYKCPEAGEIFAHSSN [C15A], the protein stability index was found to be 4.3. QRTHTGEKPYKCPEDGEIFAHSSN [C15D]: the protein stability index was 4.8.

As for QRTHTGEKPYKCPENGEIFAHSSN [C15N], the protein stability index came to 4.76. As for QRTHTGEKPYKCPEQGEIFAHSSN [C15Q], the protein stability index was 4.48. As for QRTHTGEKPYKCPELGEIFAHSSN [C15L], the protein stability index came to 3.97. On to QRTHTGEKPYKCPEMGEIFAHSSN [C15M], for which the protein stability index stood at 4.88.

With QRTHTGEKPYKCPEKGEIFAHSSN [C15K], the protein stability index was found to be 4.75. For the variant QRTHTGEKPYKCPEGGEIFAHSSN [C15G], the protein stability index was found to be 4.96.

Consider QRTHTGEKPYKCPEHGEIFAHSSN [C15H], for which the protein stability index was found to be 4.09. Take QRTHTGEKPYKCPEPGEIFAHSSN [C15P]: the protein stability index was 4.51.

With QRTHTGEKPYKCPEFGEIFAHSSN [C15F], the protein stability index amounted to 3.39. To QRTHTGEKPYKCPEEGEIFAHSSN [C15E] belongs 4.82; to QRTHTGEKPYKCPEIGEIFAHSSN [C15I], 4.04; to QRTHTGEKPYKCPICGEIFAHSSN [E14I], 3.25.

On to QRTHTGEKPYKCPGCGEIFAHSSN [E14G], for which the protein stability index worked out at 3.31. QRTHTGEKPYKCPTCGEIFAHSSN [E14T]: the protein stability index was 3.12.

With QRTHTGEKPYKCPHCGEIFAHSSN [E14H], the protein stability index was determined as 3.82. As to QRTHTGEKPYKCPFCGEIFAHSSN [E14F], the protein stability index was determined as 3.09.

As for QRTHTGEKPYKCPVCGEIFAHSSN [E14V], the protein stability index turned out to be 2.95. Regarding QRTHTGEKPYKCPMCGEIFAHSSN [E14M], the protein stability index worked out at 3.82. With QRTHTGEKPYKCPQCGEIFAHSSN [E14Q], the protein stability index amounted to 2.73. Regarding QRTHTGEKPYKCPPCGEIFAHSSN [E14P], the protein stability index is 3.52. In the case of QRTHTGEKPYKCPDCGEIFAHSSN [E14D], the protein stability index amounted to 3.1. Take QRTHTGEKPYKCPYCGEIFAHSSN [E14Y]: the protein stability index was 2.97. QRTHTGEKPYKCPNCGEIFAHSSN [E14N]: the protein stability index came out at 4.24. For the variant QRTHTGEKPYKCPACGEIFAHSSN [E14A], the protein stability index stood at 4.22.

Regarding QRTHTGEKPYKCPRCGEIFAHSSN [E14R], the protein stability index is 3.77. The result for QRTHTGEKPYKCPLCGEIFAHSSN [E14L] reads 2.34.

Turning to QRTHTGEKPYKCPCCGEIFAHSSN [E14C], the protein stability index was found to be 3.71. To QRTHTGEKPYKCPKCGEIFAHSSN [E14K] belongs 3.75; to QRTHTGEKPYKCPSCGEIFAHSSN [E14S], 3.77. As to QRTHTGEKPYKCPWCGEIFAHSSN [E14W], the protein stability index was 2.63. As for QRTHTGEKPYMCPECGEIFAHSSN [K11M], the protein stability index came to 2.97. To QRTHTGEKPYFCPECGEIFAHSSN [K11F] belongs 3.23; to QRTHTGEKPYSCPECGEIFAHSSN [K11S], 3.83; to QRTHTGEKPYGCPECGEIFAHSSN [K11G], 3.54. Consider QRTHTGEKPYECPECGEIFAHSSN [K11E], for which the protein stability index is 3.99. For the variant QRTHTGEKPYPCPECGEIFAHSSN [K11P], the protein stability index came to 4.12.

Take QRTHTGEKPYLCPECGEIFAHSSN [K11L]: the protein stability index came out at 3.39. Regarding QRTHTGEKPYTCPECGEIFAHSSN [K11T], the protein stability index was found to be 2.98. Take QRTHTGEKPYHCPECGEIFAHSSN [K11H]: the protein stability index turned out to be 3.39. As for QRTHTGEKPYCCPECGEIFAHSSN [K11C], the protein stability index turned out to be 3.62.

For the variant QRTHTGEKPYRCPECGEIFAHSSN [K11R], the protein stability index came to 3.23.

In the case of QRTHTGEKPYVCPECGEIFAHSSN [K11V], the protein stability index was 3.17. As to QRTHTGEKPYNCPECGEIFAHSSN [K11N], the protein stability index was determined as 3.52. As to QRTHTGEKPYICPECGEIFAHSSN [K11I], the protein stability index is 3.1. Turning to QRTHTGEKPYYCPECGEIFAHSSN [K11Y], the protein stability index worked out at 3.03.

Take QRTHTGEKPYWCPECGEIFAHSSN [K11W]: the protein stability index turned out to be 3.23. Regarding QRTHTGEKPYQCPECGEIFAHSSN [K11Q], the protein stability index worked out at 3.13.

Regarding QRTHTGEKPYACPECGEIFAHSSN [K11A], the protein stability index is 3.56. Regarding QRTHTGEKPYDCPECGEIFAHSSN [K11D], the protein stability index is 4.28. With QRTHTGEKPAKCPECGEIFAHSSN [Y10A], the protein stability index is 3.4. As for QRTHTGEKPVKCPECGEIFAHSSN [Y10V], the protein stability index amounted to 3.93. To QRTHTGEKPRKCPECGEIFAHSSN [Y10R] belongs 3.79; to QRTHTGEKPTKCPECGEIFAHSSN [Y10T], 4.55; to QRTHTGEKPEKCPECGEIFAHSSN [Y10E], 4.04. On to QRTHTGEKPMKCPECGEIFAHSSN [Y10M], for which the protein stability index is 3.66. To QRTHTGEKPPKCPECGEIFAHSSN [Y10P] belongs 4.31; to QRTHTGEKPCKCPECGEIFAHSSN [Y10C], 4.75; to QRTHTGEKPHKCPECGEIFAHSSN [Y10H], 3.7. Turning to QRTHTGEKPDKCPECGEIFAHSSN [Y10D], the protein stability index was found to be 4.31. With QRTHTGEKPGKCPECGEIFAHSSN [Y10G], the protein stability index stood at 3.48. Consider QRTHTGEKPSKCPECGEIFAHSSN [Y10S], for which the protein stability index came out at 3.98. Consider QRTHTGEKPWKCPECGEIFAHSSN [Y10W], for which the protein stability index is 3.46. For QRTHTGEKPKKCPECGEIFAHSSN [Y10K], the protein stability index was 3.93. To QRTHTGEKPQKCPECGEIFAHSSN [Y10Q] belongs 3.5. For the variant QRTHTGEKPLKCPECGEIFAHSSN [Y10L], the protein stability index came to 3.55. On to QRTHTGEKPNKCPECGEIFAHSSN [Y10N], for which the protein stability index was 4.17.

On to QRTHTGEKPIKCPECGEIFAHSSN [Y10I], for which the protein stability index is 3.59. Regarding QRTHTGEKPFKCPECGEIFAHSSN [Y10F], the protein stability index was 3.25.

The values are drawn from the supplement of paper PMC10567573.
